From publication PMC6378141 (Molecular psychiatry, 2018)

Target: T1, D2R(L123W:R132L), short isoform, fused to Rluc8 (human, UniProt P14416-2 1-414, L123W | R132L)
T1 sequence: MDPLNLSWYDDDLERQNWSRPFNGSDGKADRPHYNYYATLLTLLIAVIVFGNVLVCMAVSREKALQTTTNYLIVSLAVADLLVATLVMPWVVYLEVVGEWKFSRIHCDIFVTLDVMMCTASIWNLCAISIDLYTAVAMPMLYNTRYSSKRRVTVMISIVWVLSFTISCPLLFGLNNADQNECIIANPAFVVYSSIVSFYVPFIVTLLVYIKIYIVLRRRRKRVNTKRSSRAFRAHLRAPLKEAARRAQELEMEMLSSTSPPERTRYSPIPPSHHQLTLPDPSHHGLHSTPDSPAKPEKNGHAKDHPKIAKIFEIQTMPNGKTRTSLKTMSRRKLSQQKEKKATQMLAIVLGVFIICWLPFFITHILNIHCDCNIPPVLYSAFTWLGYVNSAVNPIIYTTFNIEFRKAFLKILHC
Test: FRET or BRET

B1: bovine arrestin-2 fused to mVenus at its N-terminus (natural protein)
chain: MGDKGTRVFKKASPNGKLTVYLGKRDFVDHIDLVEPVDGVVLVDPEYLKERRVYVTLTCAFRYGREDLDVLGLTFRKDLFVANVQSFPPAPEDKKPLTRLQERLIKKLGEHAYPFTFEIPPNLPCSVTLQPGPEDTGKACGVDYEVKAFCAENLEEKIHKRNSVRLVIRKVQYAPERPGPQPTAETTRQFLMSDKPLHLEASLDKEIYYHGEPISVNVHVTNNTNKTVKKIKISVRQYADICLFNTAQYKCPVAMEEADDTVAPSSTFCKVYTLTPFLANNREKRGLALDGKLKHEDTNLASSTLLREGANREILGIIVSYKVKVKLVVSRGGLLGDLASSDVAVELPFTLMHPKPKEEPPHREVPEHETPVDTNLIELDTNDDDIVFEDFARQRLKGMKDDKEEEEDGTGSPRLNDR
maximal DA-induced recruitment, % of D2R-WT: 132 % of D2R-WT
